Data taken from US20260028402A1 (published 2026).
Substitutions are numbered along the chain they refer to. Read-outs that look alike come from different tables or passages of the source.

How the values were obtained:
CynoCD100-His [1] = biological target: CynoCD100-His (cynomolgus monkey); experiment: ELISA; FIG. 5F
[2] = biological target: T1, HuCD100-Fc (in-house prepared) (human, UniProt Q92854 22-734, biotinylated in the Plexin binding and blocking assays (sites not given)); experiment: FACS blocking; FIG. 8B, blocking of binding to HuPlexin-B2-HEK293
[3] = biological target: T2, full-length mouse CD100 protein MusCD100 on cells (mouse, UniProt O09126 24-861); experiment: FACS
T2 chain: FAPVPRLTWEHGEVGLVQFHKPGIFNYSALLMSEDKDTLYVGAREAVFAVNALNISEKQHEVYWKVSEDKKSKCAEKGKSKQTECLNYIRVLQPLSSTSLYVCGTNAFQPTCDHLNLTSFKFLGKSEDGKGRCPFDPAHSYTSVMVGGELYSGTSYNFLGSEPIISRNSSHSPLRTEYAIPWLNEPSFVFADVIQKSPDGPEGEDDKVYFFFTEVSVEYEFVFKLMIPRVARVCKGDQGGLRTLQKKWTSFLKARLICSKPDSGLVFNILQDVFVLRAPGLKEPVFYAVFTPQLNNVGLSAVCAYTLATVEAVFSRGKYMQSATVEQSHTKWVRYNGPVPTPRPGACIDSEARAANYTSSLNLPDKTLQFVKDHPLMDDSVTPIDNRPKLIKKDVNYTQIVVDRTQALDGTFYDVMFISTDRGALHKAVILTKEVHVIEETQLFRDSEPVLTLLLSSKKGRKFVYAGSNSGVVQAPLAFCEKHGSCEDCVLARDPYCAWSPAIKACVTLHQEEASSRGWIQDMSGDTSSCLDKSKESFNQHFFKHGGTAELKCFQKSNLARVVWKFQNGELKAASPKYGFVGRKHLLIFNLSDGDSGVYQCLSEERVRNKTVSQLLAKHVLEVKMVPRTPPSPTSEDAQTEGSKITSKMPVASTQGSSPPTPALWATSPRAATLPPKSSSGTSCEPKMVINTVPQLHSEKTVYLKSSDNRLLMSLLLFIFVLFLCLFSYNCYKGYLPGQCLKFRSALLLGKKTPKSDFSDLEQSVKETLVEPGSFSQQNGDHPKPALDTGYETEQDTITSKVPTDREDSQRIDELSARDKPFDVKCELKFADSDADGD

[4] = biological target: T1, HuCD100-Fc (in-house prepared); experiment: FACS blocking; blocking of binding to HuPlexin-B1-HEK293
CynoCD100-HEK293 [5] = biological target: CynoCD100-HEK293 (cynomolgus monkey); experiment: FACS
[6] = biological target: T3, full-length human CD100 protein HuCD100 on cells (human, UniProt Q92854 22-862); experiment: FACS
[7] = biological target: T3, full-length human CD100 protein HuCD100 …; experiment: FACS; HuPBMC cells
HuCD100-His [8] = biological target: T4, HuCD100-His (human, UniProt Q92854 22-734); experiment: ELISA; FIG. 5D
MusCD100-His [9] = biological target: T5, MusCD100-His (mouse, UniProt O09126 24-733); experiment: ELISA; FIG. 5E
T5 chain: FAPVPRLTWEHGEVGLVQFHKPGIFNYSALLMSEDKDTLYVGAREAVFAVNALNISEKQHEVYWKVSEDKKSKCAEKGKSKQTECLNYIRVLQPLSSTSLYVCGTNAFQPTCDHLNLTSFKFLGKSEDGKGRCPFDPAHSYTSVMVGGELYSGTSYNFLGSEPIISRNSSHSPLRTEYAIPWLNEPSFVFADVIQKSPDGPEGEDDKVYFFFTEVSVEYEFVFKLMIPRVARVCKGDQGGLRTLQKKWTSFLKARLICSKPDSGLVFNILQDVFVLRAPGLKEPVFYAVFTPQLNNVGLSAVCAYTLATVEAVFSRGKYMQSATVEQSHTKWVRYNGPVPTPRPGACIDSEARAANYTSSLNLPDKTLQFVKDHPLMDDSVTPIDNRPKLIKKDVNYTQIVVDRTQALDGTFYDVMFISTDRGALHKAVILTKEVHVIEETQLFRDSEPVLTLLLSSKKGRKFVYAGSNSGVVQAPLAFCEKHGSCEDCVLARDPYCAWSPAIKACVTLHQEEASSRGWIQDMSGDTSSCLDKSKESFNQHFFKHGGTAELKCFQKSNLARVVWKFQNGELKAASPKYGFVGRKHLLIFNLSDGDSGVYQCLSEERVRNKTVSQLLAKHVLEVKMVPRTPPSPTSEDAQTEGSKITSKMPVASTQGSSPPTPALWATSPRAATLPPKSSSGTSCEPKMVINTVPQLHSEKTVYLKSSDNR

MusCD100-Fc = biological target: T6, MusCD100-Fc (mouse, UniProt O09126 24-733, biotinylated in the Plexin binding and blocking assays (sites not given)); experiment: FACS blocking; MusPlexin-B1-HEK293, FIG. 12F
T6 chain: T5 chain

[10] = biological target: T1, HuCD100-Fc (in-house prepared); experiment: FACS blocking; HuPlexin-B1-HEK293, FIG. 12B
[11] = biological target: T1, HuCD100-Fc (in-house prepared); experiment: FACS blocking; HuPlexin-B2-HEK293, FIG. 12D
CynoCD100-HEK293 [12] = biological target: CynoCD100-HEK293 (cynomolgus monkey); experiment: FACS; remark: listed apart in the source
[13] = biological target: T3, full-length human CD100 protein HuCD100 …; experiment: FACS binding; FIG. 11D
[14] = biological target: T2, full-length mouse CD100 protein …; experiment: FACS
[15] = biological target: T3, full-length human CD100 protein HuCD100 …; experiment: FACS; remark: listed apart in the source
CynoCD100-His [16] = biological target: CynoCD100-His (cynomolgus monkey); experiment: ELISA
MusCD100-His [17] = biological target: T5, MusCD100-His; experiment: ELISA
HuCD100-His [18] = biological target: T4, HuCD100-His; experiment: ELISA
[19] = biological target: T7, cynomolgus monkey PD-L1 on cells (cynomolgus monkey, UniProt G7PSE7 19-290); experiment: FACS binding
T7 sequence (G7PSE7 entry or part of it): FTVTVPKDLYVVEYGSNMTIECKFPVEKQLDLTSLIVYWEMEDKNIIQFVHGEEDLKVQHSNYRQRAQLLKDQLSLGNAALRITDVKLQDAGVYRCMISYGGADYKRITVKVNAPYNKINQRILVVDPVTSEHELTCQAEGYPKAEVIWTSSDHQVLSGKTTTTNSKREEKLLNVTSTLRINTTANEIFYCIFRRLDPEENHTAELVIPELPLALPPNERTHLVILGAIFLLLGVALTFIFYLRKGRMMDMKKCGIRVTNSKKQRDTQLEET

[20] = biological target: T7, cynomolgus monkey PD-L1 on cells; experiment: FACS binding; remark: listed apart in the source
CynoCD100-HEK293 [21] = biological target: CynoCD100-HEK293 (cynomolgus monkey); experiment: FACS; remark: listed apart in the source
CynoCD100-His [22] = biological target: CynoCD100-His (cynomolgus monkey); experiment: ELISA; FIG. 5C

B1: A31 (antibody, V domains shown)
VH: EVQLVESGGGLVQPEGSLRLSCAASGFPLDYYAIGWFRQAPGKEREGVSCIISGGSTKYSASVKGRFTISRDSANNTVYLQMNSLKPEDTAVYFCAVSWSCDLFPRDTYGWDAWGQGTLVTVSS
EC50 (CynoCD100-His [1]): 51.2 pM
IC50 [2]: 2480 pM
EC50 [3]: 945 pM
IC50 [4]: 1060 pM
EC50 (CynoCD100-HEK293 [5]): 327 pM
EC50 [6]: 374 pM
EC50 [7]: 754 pM
EC50 (HuCD100-His [8]): 45.2 pM
EC50 (MusCD100-His [9]): 59400 pM
IC50 (MusCD100-Fc): 9860 pM
IC50 [10]: 837 pM
IC50 [11]: ~4240 pM
EC50 (CynoCD100-HEK293 [12]): 579 pM
EC50 [13]: 367 pM
EC50 [14]: 1150 pM
EC50 [15]: 467 pM

B2: A31-VHH1 (antibody, V domains shown)
VH: B1 VH with N75K, K86R, P87A
EC50 (CynoCD100-His [16]): 131 pM
EC50 [7]: 356 pM
IC50 (MusCD100-Fc): 4840 pM
EC50 (MusCD100-His [17]): 230 pM
EC50 (HuCD100-His [18]): 202 pM
IC50 [10]: 800 pM
IC50 [11]: 5430 pM
EC50 [13]: 413 pM
EC50 [14]: 1780 pM
EC50 [15]: 504 pM

B3: Avelumab (antibody, V domains shown)
VH: EVQLLESGGGLVQPGGSLRLSCAASGFTFSSYIMMWVRQAPGKGLEWVSSIYPSGGITFYADTVKGRFTISRDNSKNTLYLQMNSLRAEDTAVYYCARIKLGTVTTVDYWGQGTLVTVSS
VL: QSALTQPASVSGSPGQSITISCTGTSSDVGGYNYVSWYQQHPGKAPKLMIYDVSNRPSGVSNRFSGSKSGNTASLTISGLQAEDEADYYCSSYTSSSTRVFGTGTKVTVLG
EC50 [19]: 0.988 µg/mL

B4: m18 (antibody, V domains shown)
VH: EVQLVESGGGLVQPGGSLRLSCAASRTDSNIHGMHWYRQAPGKGREWVGMIFIDGNTIVTDSVKGRFTISRDNAKNTLYLQMNTLRAEDTAVYYCAADSRGYGRAWGQGTTVTVSS
EC50 [20]: 0.242 µg/mL

B5: A9-VHH2 (antibody, V domains shown)
VH: QVQLVESGGGLVQAGGSLRLSCAASGFSLDYYAIGWFRQAPGKEREEVSCISSSGGSTDYADSVKGRFTISRAYAKVYLQMNSLRAEDTAVYYCAAGVSGSVCPPLIGAYWGQGTLVTVSS
EC50 (CynoCD100-HEK293 [21]): 516 pM
EC50 (CynoCD100-His [16]): 743 pM

B6: A9-VHH1 (antibody, V domains shown)
VH: B5 VH with A14P, R85K, A86P
EC50 (CynoCD100-HEK293 [21]): 552 pM
EC50 (CynoCD100-His [16]): 169 pM

B7: A9-VHH3 (antibody, V domains shown)
VH: B5 VH with E44G, R45L
EC50 (CynoCD100-HEK293 [21]): 835 pM
EC50 (CynoCD100-His [16]): 1310 pM

B8: A9 (antibody, V domains shown)
VH: B5 VH with R85K, A86P, L116Q
EC50 (CynoCD100-HEK293 [21]): 470 pM
EC50 (CynoCD100-His [22]): 178 pM
EC50 (CynoCD100-HEK293 [12]): 776 pM
